From US20220133797A1

The molecules below were run against CD19 (UniProt P15391) (assay: cell-based or functional assay).
“hingeNotch STS variant with AGER STS (RRQRR) (receptor)” was tested, and the Average MFI Difference (MFI of ON - MFI of OFF) (BFP reporter; no CAR stimulation) was 1130 MFI, the Average MFI Difference (MFI of ON - MFI of OFF) (BFP reporter; with CAR stimulation by ALPPL2+ K562) was 1790 MFI and the Average Signal To Noise (BFP reporter MFI, CD19+ K562 vs K562; no CAR stimulation) was 11.9. The Average Signal To Noise (BFP reporter MFI, CD19+ K562 vs K562; with CAR stimulation by ALPPL2+ K562) was 106. Work on “hingeNotch STS variant with CDH2 STS (…) (receptor)” yielded an Average MFI Difference (MFI of ON - MFI of OFF) (BFP reporter; no CAR stimulation) of 1130 MFI, an Average MFI Difference (MFI of ON - MFI of OFF) (BFP reporter; with CAR stimulation by ALPPL2+ K562) of 2830 MFI and an Average Signal To Noise (BFP reporter MFI, CD19+ K562 vs K562; no CAR stimulation) of 2.26. For the same molecule, the Average Signal To Noise (BFP reporter MFI, CD19+ K562 vs K562; with CAR stimulation by ALPPL2+ K562) was 4.24. Work on “hingeNotch STS variant with CSF1R STS (KYKQKPK) (receptor)” yielded an Average MFI Difference (MFI of ON - MFI of OFF) (BFP reporter; no CAR stimulation) of 801 MFI, an Average MFI Difference (MFI of ON - MFI of OFF) (BFP reporter; with CAR stimulation by ALPPL2+ K562) of 1510 MFI and an Average Signal To Noise (BFP reporter MFI, CD19+ K562 vs K562; no CAR stimulation) of 3.09. The Average Signal To Noise (BFP reporter MFI, CD19+ K562 vs K562; with CAR stimulation by ALPPL2+ K562) was 5.45. Work on “hingeNotch STS variant with CXCL16 STS (KRRR) (receptor)” yielded an Average MFI Difference (MFI of ON - MFI of OFF) (BFP reporter; no CAR stimulation) of 1290 MFI, an Average MFI Difference (MFI of ON - MFI of OFF) (BFP reporter; with CAR stimulation by ALPPL2+ K562) of 1690 MFI and an Average Signal To Noise (BFP reporter MFI, CD19+ K562 vs K562; no CAR stimulation) of 14.4. The Average Signal To Noise (BFP reporter MFI, CD19+ K562 vs K562; with CAR stimulation by ALPPL2+ K562) was 27.9. With “hingeNotch STS variant with DAG1 STS (RKKRKGK) (receptor)” the Average MFI Difference (MFI of ON - MFI of OFF) (BFP reporter; no CAR stimulation) was 2520 MFI, the Average MFI Difference (MFI of ON - MFI of OFF) (BFP reporter; with CAR stimulation by ALPPL2+ K562) was 4640 MFI and the Average Signal To Noise (BFP reporter MFI, CD19+ K562 vs K562; no CAR stimulation) was 2.82. It also gave an Average Signal To Noise (BFP reporter MFI, CD19+ K562 vs K562; with CAR stimulation by ALPPL2+ K562) of 7.4. Work on “hingeNotch STS variant with EPCAM STS (…) (receptor)” yielded an Average MFI Difference (MFI of ON - MFI of OFF) (BFP reporter; no CAR stimulation) of 864 MFI, an Average MFI Difference (MFI of ON - MFI of OFF) (BFP reporter; with CAR stimulation by ALPPL2+ K562) of 2370 MFI and an Average Signal To Noise (BFP reporter MFI, CD19+ K562 vs K562; no CAR stimulation) of 1.64. For the same molecule, the Average Signal To Noise (BFP reporter MFI, CD19+ K562 vs K562; with CAR stimulation by ALPPL2+ K562) was 2.48. “hingeNotch STS variant with GHR STS (KQQRIK) (receptor)” gave an Average MFI Difference (MFI of ON - MFI of OFF) (BFP reporter; no CAR stimulation) of 141 MFI, an Average MFI Difference (MFI of ON - MFI of OFF) (BFP reporter; with CAR stimulation by ALPPL2+ K562) of -51.5 MFI and an Average Signal To Noise (BFP reporter MFI, CD19+ K562 vs K562; no CAR stimulation) of 2.22. The Average Signal To Noise (BFP reporter MFI, CD19+ K562 vs K562; with CAR stimulation by ALPPL2+ K562) was 2.67. “hingeNotch STS variant with Jag2 STS (…) (receptor)” gave an Average MFI Difference (MFI of ON - MFI of OFF) (BFP reporter; no CAR stimulation) of 1320 MFI, an Average MFI Difference (MFI of ON - MFI of OFF) (BFP reporter; with CAR stimulation by ALPPL2+ K562) of 3320 MFI and an Average Signal To Noise (BFP reporter MFI, CD19+ K562 vs K562; no CAR stimulation) of 5.09. It also gave an Average Signal To Noise (BFP reporter MFI, CD19+ K562 vs K562; with CAR stimulation by ALPPL2+ K562) of 21.4. In the case of “hingeNotch STS variant with KCNE3 STS (RSRKVDKR) (receptor)”, the Average MFI Difference (MFI of ON - MFI of OFF) (BFP reporter; no CAR stimulation) is reported as 976 MFI, the Average MFI Difference (MFI of ON - MFI of OFF) (BFP reporter; with CAR stimulation by ALPPL2+ K562) is reported as 1900 MFI and the Average Signal To Noise (BFP reporter MFI, CD19+ K562 vs K562; no CAR stimulation) is reported as 9.78. It also gave an Average Signal To Noise (BFP reporter MFI, CD19+ K562 vs K562; with CAR stimulation by ALPPL2+ K562) of 62.5. In the case of “hingeNotch STS variant with KL STS (KKGRRSYK) (receptor)”, the Average MFI Difference (MFI of ON - MFI of OFF) (BFP reporter; no CAR stimulation) is reported as 880 MFI, the Average MFI Difference (MFI of ON - MFI of OFF) (BFP reporter; with CAR stimulation by ALPPL2+ K562) is reported as 1570 MFI and the Average Signal To Noise (BFP reporter MFI, CD19+ K562 vs K562; no CAR stimulation) is reported as 3.72. It also gave an Average Signal To Noise (BFP reporter MFI, CD19+ K562 vs K562; with CAR stimulation by ALPPL2+ K562) of 6.53. “hingeNotch STS variant with LRP1B STS (…) (receptor)” showed an Average MFI Difference (MFI of ON - MFI of OFF) (BFP reporter; no CAR stimulation) of 1010 MFI, an Average MFI Difference (MFI of ON - MFI of OFF) (BFP reporter; with CAR stimulation by ALPPL2+ K562) of 2560 MFI and an Average Signal To Noise (BFP reporter MFI, CD19+ K562 vs K562; no CAR stimulation) of 2.32. The Average Signal To Noise (BFP reporter MFI, CD19+ K562 vs K562; with CAR stimulation by ALPPL2+ K562) was 10.3. Molecule “hingeNotch STS variant with NRG1 STS (…) (receptor)” has an Average MFI Difference (MFI of ON - MFI of OFF) (BFP reporter; no CAR stimulation) of 806 MFI, an Average MFI Difference (MFI of ON - MFI of OFF) (BFP reporter; with CAR stimulation by ALPPL2+ K562) of 637 MFI and an Average Signal To Noise (BFP reporter MFI, CD19+ K562 vs K562; no CAR stimulation) of 9.42. The Average Signal To Noise (BFP reporter MFI, CD19+ K562 vs K562; with CAR stimulation by ALPPL2+ K562) was 25. With “hingeNotch STS variant with Notch 2 STS (KRKRKH) (receptor)” the Average MFI Difference (MFI of ON - MFI of OFF) (BFP reporter; no CAR stimulation) was 1260 MFI, the Average MFI Difference (MFI of ON - MFI of OFF) (BFP reporter; with CAR stimulation by ALPPL2+ K562) was 4190 MFI and the Average Signal To Noise (BFP reporter MFI, CD19+ K562 vs K562; no CAR stimulation) was 5.24. For the same molecule, the Average Signal To Noise (BFP reporter MFI, CD19+ K562 vs K562; with CAR stimulation by ALPPL2+ K562) was 15.5. For “hingeNotch STS variant with Notch 4 STS (RRRREH) (receptor)”, the Average MFI Difference (MFI of ON - MFI of OFF) (BFP reporter; no CAR stimulation) was 1020 MFI, the Average MFI Difference (MFI of ON - MFI of OFF) (BFP reporter; with CAR stimulation by ALPPL2+ K562) was 1480 MFI and the Average Signal To Noise (BFP reporter MFI, CD19+ K562 vs K562; no CAR stimulation) was 10.3. The Average Signal To Noise (BFP reporter MFI, CD19+ K562 vs K562; with CAR stimulation by ALPPL2+ K562) was 24.1. Work on “hingeNotch STS variant with PTPRF STS (KRKRTH) (receptor)” yielded an Average MFI Difference (MFI of ON - MFI of OFF) (BFP reporter; no CAR stimulation) of 1180 MFI, an Average MFI Difference (MFI of ON - MFI of OFF) (BFP reporter; with CAR stimulation by ALPPL2+ K562) of 2570 MFI and an Average Signal To Noise (BFP reporter MFI, CD19+ K562 vs K562; no CAR stimulation) of 10.5. The Average Signal To Noise (BFP reporter MFI, CD19+ K562 vs K562; with CAR stimulation by ALPPL2+ K562) was 50.8.

Target: CD19 (UniProt P15391)
Assay: cell-based or functional assay
Remark: another data set of the same source
Work on RRKREH (receptor, part only) [hingeNotch STS variant with Notch3 STS (RRKREH)] yielded an Average MFI Difference (MFI of ON - MFI of OFF) (BFP reporter; no CAR stimulation) of 1190 MFI, an Average MFI Difference (MFI of ON - MFI of OFF) (BFP reporter; with CAR stimulation by ALPPL2+ K562) of 1990 MFI and an Average Signal To Noise (BFP reporter MFI, CD19+ K562 vs K562; no CAR stimulation) of 12.8. It also gave an Average Signal To Noise (BFP reporter MFI, CD19+ K562 vs K562; with CAR stimulation by ALPPL2+ K562) of 29.2. Work on RRRSKYSKAK (receptor, part only) [hingeNotch STS variant with EPHA3 STS (…)] yielded an Average MFI Difference (MFI of ON - MFI of OFF) (BFP reporter; no CAR stimulation) of 1290 MFI, an Average MFI Difference (MFI of ON - MFI of OFF) (BFP reporter; with CAR stimulation by ALPPL2+ K562) of 2270 MFI and an Average Signal To Noise (BFP reporter MFI, CD19+ K562 vs K562; no CAR stimulation) of 2.97. The Average Signal To Noise (BFP reporter MFI, CD19+ K562 vs K562; with CAR stimulation by ALPPL2+ K562) was 6.31. In the case of KTKKQRKQMHNHLR (receptor, part only) [hingeNotch STS variant with NRG2 STS (…)], the Average MFI Difference (MFI of ON - MFI of OFF) (BFP reporter; no CAR stimulation) is reported as 1260 MFI, the Average MFI Difference (MFI of ON - MFI of OFF) (BFP reporter; with CAR stimulation by ALPPL2+ K562) is reported as 2200 MFI and the Average Signal To Noise (BFP reporter MFI, CD19+ K562 vs K562; no CAR stimulation) is reported as 8.32. It also gave an Average Signal To Noise (BFP reporter MFI, CD19+ K562 vs K562; with CAR stimulation by ALPPL2+ K562) of 15.8. With HPLRKRRKRKKK (receptor, part only) [hingeNotch STS variant with BTC STS (…)] the Average MFI Difference (MFI of ON - MFI of OFF) (BFP reporter; no CAR stimulation) was 480 MFI, the Average MFI Difference (MFI of ON - MFI of OFF) (BFP reporter; with CAR stimulation by ALPPL2+ K562) was 423 MFI and the Average Signal To Noise (BFP reporter MFI, CD19+ K562 vs K562; no CAR stimulation) was 1.23. It also gave an Average Signal To Noise (BFP reporter MFI, CD19+ K562 vs K562; with CAR stimulation by ALPPL2+ K562) of 1.71. HRRCKHRTGK (receptor, part only) [hingeNotch STS variant with IL1R2 STS (…)] was tested, and the Average MFI Difference (MFI of ON - MFI of OFF) (BFP reporter; no CAR stimulation) was 980 MFI, the Average MFI Difference (MFI of ON - MFI of OFF) (BFP reporter; with CAR stimulation by ALPPL2+ K562) was 2030 MFI and the Average Signal To Noise (BFP reporter MFI, CD19+ K562 vs K562; no CAR stimulation) was 2.41. For the same molecule, the Average Signal To Noise (BFP reporter MFI, CD19+ K562 vs K562; with CAR stimulation by ALPPL2+ K562) was 4.78.
